# Results reported in patent publication US20050214287A1 (published 2005).
# Columns and labels:
# [1] = molecular target: CXCR4 (human) (UniProt P61073); test: competition of 125I SDF-1α on CEM-NKr cells
# [2] = molecular target: T1, CXCR4 (human, UniProt P61073 1-352); test: displacement of 125I SDF-1α on CEM-NKr cells, DisplaceMax panel
# T1 construct: whole, on cells; also called the SDF-1 receptor expressed on CEM-NKr; the hallmark SDF-1 receptor
# T1 sequence (P61073 whole entry): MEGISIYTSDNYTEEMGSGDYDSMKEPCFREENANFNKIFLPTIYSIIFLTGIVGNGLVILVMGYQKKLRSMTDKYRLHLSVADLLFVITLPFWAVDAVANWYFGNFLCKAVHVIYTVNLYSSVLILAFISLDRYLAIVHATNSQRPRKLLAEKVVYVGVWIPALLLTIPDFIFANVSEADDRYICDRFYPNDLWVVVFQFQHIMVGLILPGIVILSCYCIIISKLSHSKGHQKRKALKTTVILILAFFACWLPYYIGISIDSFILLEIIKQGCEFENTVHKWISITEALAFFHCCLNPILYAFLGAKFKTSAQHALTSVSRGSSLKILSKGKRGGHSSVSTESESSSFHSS
# CXCR4 (human), sequence (P61073 whole entry): as above
Molecule,IC50 [1] [nM],binding result [2]
SDF-1β (human) (from UniProt P48061 22-93) (ligand),1.5,–
"I-TAC (mouse) (ligand, UniProt Q9JHH5 22-100, looked up, also called CXCL11) FLMFKQGRCLCIGPGMKAVKMAEIEKASVIYPSNGCDKVEVIVTMKAHKRQRCLDPRSKQARLIMQAIEKKNFLRRQNM",–,no binding
